Reference: US20050142582, “Aptamers and methods for their in vitro selection and uses thereof” (The Regents of the University of California, published 2005)

Experiments:
[1] = target: T1, TTF1 (thyroid transcription factor 1) (Ciona intestinalis, UniProt O96738 O96738:1-477); assay: SPR; kinetic global fit 1:1; steady-state Kd 65.6 nM; HBS-P pH 7.5, 150 mM NaCl; details: tags: N-terminal His6 plus factor Xa site (pNHis vector), E. coli; label: biotin
T1 sequence: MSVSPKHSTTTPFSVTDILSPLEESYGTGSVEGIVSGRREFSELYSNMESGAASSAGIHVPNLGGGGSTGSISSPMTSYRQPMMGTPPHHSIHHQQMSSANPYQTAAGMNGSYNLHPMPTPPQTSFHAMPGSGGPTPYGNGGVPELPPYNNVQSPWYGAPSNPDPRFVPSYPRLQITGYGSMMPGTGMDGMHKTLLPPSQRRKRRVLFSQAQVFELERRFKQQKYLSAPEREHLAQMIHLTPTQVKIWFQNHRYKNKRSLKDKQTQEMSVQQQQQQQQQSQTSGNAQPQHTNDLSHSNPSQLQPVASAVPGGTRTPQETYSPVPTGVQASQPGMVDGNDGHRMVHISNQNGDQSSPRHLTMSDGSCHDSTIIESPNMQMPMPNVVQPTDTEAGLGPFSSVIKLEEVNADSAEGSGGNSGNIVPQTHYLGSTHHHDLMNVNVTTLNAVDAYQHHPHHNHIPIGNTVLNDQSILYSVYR
Protocol: (§1) The affinity, as described by the KD, was determined by a global fit using the kinetic simultaneous kₐ/kd model, assuming Langmuir (1:1) binding.
(§2) BIAcore surface plasmon resonance. The affinity of the aptamers for their protein targets was measured using surface plasmon resonance (SPR) with a BIAcore X instrument (BIAcore, Piscataway, N.J.). Biotinylated aptamer (QIAGEN Operon, Alameda, Calif.) was diluted to 0.5 ng/μL in HBS-P (10 mM HEPES, pH 7.5, 150 mM NaCl, 0.05% Tween 20), heated to 95° C., and rapidly cooled at 4° C. before use. Approximately 100 RU of biotinylated aptamer (ligand) was immobilized to one flow cell of a streptavidin coated sensor chip. Purified TTF1 protein was diluted into HBS-P to give a series of concentrations of TTF1 protein (3, 12, 31, 62, 125, 250 nM or 2.5, 5, 10, 20, 40, 100 nM) that were injected over the surface for 2 min at a flow rate of 20 μL/min (to minimize mass transfer limitations). Bulk shift and non-specific interactions with the streptavidin were subtracted using the response from a reference flow cell. […] The affinity, as described by the equilibrium dissociation constant (KD), was determined globally by fitting to the kinetic simultaneous kₐ/kd model, assuming Langmuir (1:1) binding. The steady-state affinity was determined from curve-fitting to a plot of the Req values, derived from sensorgrams fitted locally, against the concentrations.

[2] = target: XF0749 (virulence regulator) (Xylella fastidiosa, UniProt Q9PFC9 Q9PFC9:1-134); assay: SPR; details: tags: His6, E. coli; label: biotin
[3] = target: XF1293 (hypothetical conserved protein) (Xylella fastidiosa, UniProt Q9PDT6 Q9PDT6:1-231); assay: SPR; details: tags: His6, E. coli; label: biotin
BSA = BSA (UniProt P02769 P02769:25-607); assay: ELONA; PBS-T, 4 C overnight; details: label: biotin
[4] = target: T1, TTF1 (thyroid transcription factor 1); assay: SPR; kinetic global fit 1:1; steady-state Kd 5.14 nM; HBS-P pH 7.5, 150 mM NaCl; details: tags: N-terminal His6 plus factor Xa site (pNHis vector), E. coli; label: biotin
Protocol: as §1, §2

BSA, sequence (P02769 25-607, one chain of several): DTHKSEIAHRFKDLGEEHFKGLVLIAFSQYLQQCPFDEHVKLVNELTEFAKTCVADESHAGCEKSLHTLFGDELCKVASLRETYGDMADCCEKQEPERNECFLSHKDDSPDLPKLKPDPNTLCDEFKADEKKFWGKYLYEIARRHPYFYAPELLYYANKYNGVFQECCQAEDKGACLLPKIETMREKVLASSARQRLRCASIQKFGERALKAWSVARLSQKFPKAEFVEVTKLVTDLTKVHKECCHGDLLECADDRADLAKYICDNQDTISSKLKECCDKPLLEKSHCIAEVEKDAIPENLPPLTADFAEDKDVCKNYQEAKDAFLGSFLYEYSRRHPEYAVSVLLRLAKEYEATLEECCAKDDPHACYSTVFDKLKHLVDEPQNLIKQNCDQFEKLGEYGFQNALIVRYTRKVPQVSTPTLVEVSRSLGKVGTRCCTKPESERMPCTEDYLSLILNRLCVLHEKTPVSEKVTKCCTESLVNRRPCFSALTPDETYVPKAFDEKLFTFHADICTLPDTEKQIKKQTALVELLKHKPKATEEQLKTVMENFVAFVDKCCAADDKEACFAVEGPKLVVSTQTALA

B1: TTF1 Aptamer C (ssDNA)
DNA: GGTATTGAGGGTCGCATCTGGCTAGTGGGTAAGGGGCGGGAGGGTGACAGGGCGATCCGATGGCTCTAACTCTCCTCT
[1]
  Kd: 32.5 nM

B2: 6H7 (ssDNA)
DNA: GGTATTGAGGGTCGCATCGCTATGGGTGGTCTGGTTGGGATTGGCCCCGGGAGCTGGCGATGGCTCTAACTCTCCTCT
[2]
  Kd: 42 nM
[3]
  Kd: 0.4 nM

B3: TTF1 Aptamer A (ssDNA)
DNA: GGTATTGAGGGTCGCATCTCAAAAGGGGTGATTGCTTGCACAATGACAGGGTAGGACAGATGGCTCTAACTCTCCTCT
BSA
  binding result: no binding
[4]
  Kd: 3.36 nM

B4: 6H5 (ssDNA)
DNA: GGTATTGAGGGTCGCATCGGCTTCAGGTTGGTCTGGTTGGGTTTGGCTCCTGTGTACGGATGGCTCTAACTCTCCTCT
[3]
  Kd: 30 nM

B5: 6H1 (ssDNA)
DNA: GGTATTGAGGGTCGCATCGGCAAAAAGGATTGCCCAGGTCTGCTGTCTAGCCGGATTCGATGGCTCTAACTCTCCTCT
[3]
  Kd: 0.08 nM
